Source: the RNAGym collection of RNA variant scans (doi:10.1073/pnas.2313332121)

B1: TPR t1 (parent)
chain: GACCAAUCUGCCCUCAGAGCUCGAGAACAUCUUCGGAUGCAGAGGAGGCAGGCUUCGGUGGCGCGAUAGCGCCAACGUCCUCAACCUCCAAUGCAUCCCACCACAUGAUGAUGCCUGAAGAGCCUUGGUUUUUUG

Variants of: B1
Assay: polymerase ribozyme fitness, log enrichment relative to wild type (log ratio); higher = more active; in vitro selection for triplet polymerase activity
Procedure, shortened: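 Genotype fitness is the logarithm of its enrichment divided by wild-type enrichment, using inverse-variance-weighted averages of replicates. That logarithm is base 2. Enrichment was measured by Illumina sequencing of input and output libraries from one triplicate in vitro selection round, with frozen incubation at −7 °C, on PCR-built, transcribed mutant libraries of each subunit of a heterodimeric triplet polymerase ribozyme, retaining genotypes with ≥10 input reads and ≥1 read per output.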

In order of falling “polymerase ribozyme fitness (log ratio)” value:
1. A121U C124A  2.1
2. C72G U78G C97U C124A  1.18
3. C64U A111G  1.06
4. C8G C124U  0.949
5. A41C C124G  0.528
6. C56A C73U  0.483
7. G120C C123G  0.469
8. C49A C123G  0.461
9. A50C G71U  0.242
10. U9A G39A  0.185
11. C11U C82U C104A U112A  0.128
12. C13U G48A G122U  0.102
13. C88A C115G G120C C123A  0.0548
14. U81A A90G  -0.0144
15. G60A U87A  -0.0639
16. C12G C64U C73U U131G  -0.0751
17. A74G A95U  -0.0785
18. G47A G77U  -0.132
19. C62A U96A U112C  -0.2
20. G57U C73G  -0.228
21. G52U U55C C79U  -0.237
22. G71U C97U  -0.285
23. C8A A37U C86U  -0.337
24. C11U C20U C56A C88U C114U U131G  -0.397
25. G47A G120A  -0.422
26. C82A  -0.485
27. C13U C49A G71A  -0.504
28. G10A C72G U96A C104U  -0.61
29. G93C U130C  -0.714
30. U87G C115U  -0.742
31. A83C C94A  -0.753
32. G63A A84C  -0.832
33. C4A C56U  -0.847
34. C13U G51A C56G C72A U78G C89U  -0.967
35. U59C C94A  -1.01
36. A5U G113A  -1.04
37. C79A  -1.04
38. C11G G52C G117A  -1.05
39. G47C A90G  -1.06
40. A37U U132C  -1.09
41. C8G C72U A90C A91U A95G  -1.1
42. G47C A83U  -1.11
43. G36U U59C U78C C101U C123A  -1.25
44. G47C U55G C88U  -1.25
45. A6G C70U  -1.29
46. G113C C124G  -1.33
47. C40A G77A  -1.33
48. C13U C114G  -1.34
49. C12G G47C  -1.34
50. A50U C64U A111G U125A  -1.48
51. G77C U81G  -1.57
52. G10C U87G C115U A119G G120C U131G  -1.59
53. C40A G61U  -1.59
54. C70U A100C  -1.61
55. C40G G48U G69U  -1.67
56. C3U G113A  -1.68
57. U7C A18C  -1.7
58. G39C A41U C72U A74U G113U C114U A121G  -1.73
59. U96A G120U G128U  -1.74
60. G42A U54C  -1.78
61. C13A G57U  -1.78
62. A37G U55G C88U A105C G120C U125C  -1.81
63. C12G C102A  -1.85
64. U38A C40U  -1.9
65. C8A C20U G60A C88A  -1.93
66. A6C C11U G63C  -1.94
67. C12A C13A  -1.97
68. A68G U87G A118U U132A  -2
69. C13U A29U A46U C56A C115U  -2.01
70. C72G U81C U87C A100U  -2.07
71. A6U A37U C101G C123A U125G U132A  -2.11
72. G39U G44C U59A  -2.12
73. A50U U78C  -2.19
74. G48A G113C  -2.26
75. G60U C114A G127C  -2.37
76. C11A G77U  -2.4
77. G60A A66U A111C  -2.41
78. C70A C102A U112C  -2.45
79. C34A U59A  -2.58
80. C89U A95U C115U  -2.59
81. U7C G10C G60C C102U U112C  -2.68
82. C12U G42A A90G G128U  -2.7
83. C56G A83U C115U  -2.71
84. C3G C88U U106C  -2.72
85. A50U G61U U126G  -2.73
86. C28U G58C G61C  -2.78
87. G35C C123G  -2.8
88. A2U G77A  -2.8
89. C20G U32A G44C A111C G113U  -2.86
90. A18G G63C  -2.89
91. U21C C34A C49U U78C G120A  -2.92
92. G36C C53U U55G G113C G120C  -2.92
93. C53U C70U A74G G113C U133A  -2.94
94. A5U A46U U81A  -2.98
95. A46U U54G C82A G110U  -3.02
96. A27C C73U  -3.12
97. C12A U21C C40U G42A A50C  -3.16
98. A111C C115A  -3.19
99. C56G U78A U116G  -3.2
100. C8G A29U A68G C88U U125G  -3.26
101. C15A G69U C88U U125C  -3.27
102. U9C A37C C114G G117U  -3.29
103. U9A G51U G52U U116A  -3.29
104. A2U G60U C82G  -3.31
105. U14C A90C  -3.39
106. C15A C82U C89A U96A C104U  -3.39
107. C12U C88A A95U C104A  -3.44
108. A43U C102U  -3.44
109. C49G C62G A75G C79U  -3.47
110. C53G C70G C115G  -3.49
111. C11G G60U U116G C124U  -3.49
112. G58C G61U C94A U116A  -3.54
113. U7G C11U A18C G45U C53A G57U C72U  -3.58
114. A18U C40A A41U  -3.61
115. A90C G128C  -3.68
116. C40G G47U C49A  -3.74
117. U14G U96A G110A  -3.75
118. C8G G47C G69U U92A G93U C123A U126A  -3.8
119. U96A A105U  -4.09
120. C15U C97G A121C  -4.09
121. A74C C104A C114A  -4.14
122. C70A C72G  -4.19
123. A50U C115G A121C G128U  -4.2
124. U21A A41U C70U A95U  -4.21
125. A2U G19U C70U A121G  -4.27
126. U59G G117U U131G  -4.31
127. U7G G35C U130G  -4.31
128. C34U G61C C102U C124U  -4.34
129. C8A A27C C28U  -4.62
130. G10A G71C U81A A100C  -4.69
131. G17U C22G U33G G61A C115A  -4.69
132. U38A C49G G60U G61A U116C U125A  -4.75
133. C28G G63U C70G C88A U106A U125G G128C  -4.76
134. U9G G65C A121U  -4.76
135. A105C U116C  -4.81
136. C8U A75U C89U A90U C99U G120A U130G U131A  -4.88
137. G47A A50U C80A C88U A111G  -4.88
138. G19A G117A  -4.95
139. A41G G45U C62A U78A U112G  -5.01
140. A26U G42U G57A U78G U106A  -5.03
141. U30G G60C U112A G127U U129G  -5.06
142. C64U G77A C80A U92C  -5.1
143. C20G A29G C88U U106A  -5.14
144. C31U C72G G120C  -5.23
145. A5C G71C C89U G117U U131C  -5.27
146. A24G G71A G127U  -5.42
147. C15U A18U C49G C72A U92C  -5.58
148. C20G C53G G57C A91G  -5.64
149. U7A A27U G61C G117U  -5.69
150. C40A A41U A50C C62A  -5.7
151. C15U C28U C89A C123A  -5.8
152. C11A C13G C72U C88G G113A  -5.81
153. C72U C94G G110C  -5.81
154. G47A G48C G52U C62G C79U  -5.83
155. U9C G17U U54C C79A C98U C101A  -5.9
156. C20G U32C G48C G120A U130A  -5.95
157. A84U U96A C99G C114A  -6.17
158. G17C A43G C101A C104A U106A U112G U126C  -6.47
159. G51C G110C  -6.54
160. A5U C12G C89U A103C G117U  -6.59
161. C11U U54G G61U U106A G113C C114A  -6.66
162. C15U U21A A100C U109C G117U U130A  -6.66
163. A27U C76A G113A A119U  -6.73
164. C11A C22U A91U C102U C115U G135U  -6.8
165. A43C G63A U78C C104A G120C  -6.92
166. C12U G47U G69A G110C U112G  -7.15
167. A24G C86G C99U C114G  -7.76
